From US20170298113A1 (TEL HASHOMER MEDICAL RESEARCH INFRASTRUCTURE AND SERVICES, published 2017)
*1 amine or outer side, *2 acyl side, *3 side chain or, on linkers, in order; H or OH if unused. Bridges are numbered along the chain shown (N, C = ends). Primed or numbered codes have the meaning given here. [ ]: non-standard residue; d: D form. N(2-mercaptoethyl)Gly = O=C(CN(CCS[*:3])[*:1])[*:2]; FITC′ = fluorescein isothiocyanate; Orn = NCCC[C@H](N)C(=O)O; Aib = CC(C)(N)C(=O)O; GABA = NCCCC(=O)O

Experiments:
[1] = target: human somatostatin receptor subtype SSTR2 (human) (UniProt P30874); test: FACS, transfected HEK-293 cells; normalised to Compound 1
human somatostatin receptor subtype SSTR2 (human), sequence (P30874 whole entry): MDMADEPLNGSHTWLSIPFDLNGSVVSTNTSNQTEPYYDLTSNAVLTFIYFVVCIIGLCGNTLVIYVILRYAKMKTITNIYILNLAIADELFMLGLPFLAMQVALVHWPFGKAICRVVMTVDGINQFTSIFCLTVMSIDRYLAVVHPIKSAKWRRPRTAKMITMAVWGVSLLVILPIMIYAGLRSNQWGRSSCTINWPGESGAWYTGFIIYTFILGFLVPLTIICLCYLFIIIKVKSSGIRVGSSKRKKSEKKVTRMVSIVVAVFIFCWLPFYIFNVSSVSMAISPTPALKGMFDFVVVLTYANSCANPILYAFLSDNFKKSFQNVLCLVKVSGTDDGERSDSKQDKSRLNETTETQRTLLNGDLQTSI

[2] = target: human somatostatin receptor subtype SSTR3 (human) (UniProt P32745); test: as above
human somatostatin receptor subtype SSTR3 (human), sequence (P32745 whole entry): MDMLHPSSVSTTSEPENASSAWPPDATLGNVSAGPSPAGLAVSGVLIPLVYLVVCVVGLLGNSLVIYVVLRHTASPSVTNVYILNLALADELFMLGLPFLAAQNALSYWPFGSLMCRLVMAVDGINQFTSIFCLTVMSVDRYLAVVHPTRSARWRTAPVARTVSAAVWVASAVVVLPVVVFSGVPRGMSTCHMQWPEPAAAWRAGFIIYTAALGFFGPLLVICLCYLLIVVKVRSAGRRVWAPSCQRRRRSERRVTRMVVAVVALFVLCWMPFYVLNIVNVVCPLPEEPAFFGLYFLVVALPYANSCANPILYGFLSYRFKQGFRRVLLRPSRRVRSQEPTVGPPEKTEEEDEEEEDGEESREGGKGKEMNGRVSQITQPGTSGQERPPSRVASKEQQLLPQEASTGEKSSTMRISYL

[3] = target: human somatostatin receptor subtype SSTR5 (human) (UniProt P35346); test: as above
human somatostatin receptor subtype SSTR5 (human), sequence (P35346 whole entry): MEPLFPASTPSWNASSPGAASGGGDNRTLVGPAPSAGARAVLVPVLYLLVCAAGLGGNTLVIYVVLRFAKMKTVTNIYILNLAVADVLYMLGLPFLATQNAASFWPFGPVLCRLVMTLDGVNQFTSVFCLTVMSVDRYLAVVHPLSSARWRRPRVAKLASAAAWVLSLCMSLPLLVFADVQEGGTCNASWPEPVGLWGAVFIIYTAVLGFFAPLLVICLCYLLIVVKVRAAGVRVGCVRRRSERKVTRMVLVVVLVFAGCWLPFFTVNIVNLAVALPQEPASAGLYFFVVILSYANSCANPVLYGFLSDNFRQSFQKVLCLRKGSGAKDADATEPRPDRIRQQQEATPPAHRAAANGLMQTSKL

[4] = target: human somatostatin receptor subtype SSTR1 (human) (UniProt P30872); test: as above
human somatostatin receptor subtype SSTR1 (human), sequence (P30872 whole entry): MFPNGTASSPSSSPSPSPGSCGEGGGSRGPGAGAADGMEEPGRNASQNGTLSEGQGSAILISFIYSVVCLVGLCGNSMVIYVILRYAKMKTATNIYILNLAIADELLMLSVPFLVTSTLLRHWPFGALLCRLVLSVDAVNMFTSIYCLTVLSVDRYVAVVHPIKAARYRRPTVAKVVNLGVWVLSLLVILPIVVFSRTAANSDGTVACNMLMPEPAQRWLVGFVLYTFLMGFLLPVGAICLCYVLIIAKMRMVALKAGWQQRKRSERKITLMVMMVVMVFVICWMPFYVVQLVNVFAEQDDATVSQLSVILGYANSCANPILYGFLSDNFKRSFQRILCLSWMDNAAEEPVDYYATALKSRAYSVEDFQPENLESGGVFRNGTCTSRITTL

[5] = target: human somatostatin receptor subtype SSTR4 (human) (UniProt P31391); test: as above
human somatostatin receptor subtype SSTR4 (human), sequence (P31391 whole entry): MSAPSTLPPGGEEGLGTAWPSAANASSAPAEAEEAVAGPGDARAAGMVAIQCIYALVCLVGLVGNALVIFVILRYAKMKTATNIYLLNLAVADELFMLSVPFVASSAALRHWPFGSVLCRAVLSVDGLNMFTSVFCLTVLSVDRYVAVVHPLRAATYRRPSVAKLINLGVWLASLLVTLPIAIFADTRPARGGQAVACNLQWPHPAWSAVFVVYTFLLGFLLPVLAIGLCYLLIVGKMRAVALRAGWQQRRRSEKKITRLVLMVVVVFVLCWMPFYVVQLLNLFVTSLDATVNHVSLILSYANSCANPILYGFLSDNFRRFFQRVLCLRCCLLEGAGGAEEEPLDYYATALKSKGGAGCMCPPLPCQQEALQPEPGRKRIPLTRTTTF

[6] = target: human somatostatin receptor subtype SSTR3 (human) (UniProt P32745); test: FACS, transfected HEK-293 cells
[7] = target: human somatostatin receptor subtype SSTR5 (human) (UniProt P35346); test: FACS, transfected HEK-293 cells
[8] = target: human somatostatin receptor subtype SSTR1 (human) (UniProt P30872); test: FACS, transfected HEK-293 cells
[9] = target: human somatostatin receptor subtype SSTR4 (human) (UniProt P31391); test: FACS, transfected HEK-293 cells
[10] = target: human somatostatin receptor subtype SSTR2 (human) (UniProt P30874); test: FACS, transfected HEK-293 cells; row normalised to highest
[11] = target: human somatostatin receptor subtype SSTR3 (human) (UniProt P32745); test: as above
[12] = target: human somatostatin receptor subtype SSTR5 (human) (UniProt P35346); test: as above
[13] = target: human somatostatin receptor subtype SSTR1 (human) (UniProt P30872); test: as above
[14] = target: human somatostatin receptor subtype SSTR4 (human) (UniProt P31391); test: as above
[15] = target: human somatostatin receptor subtype SSTR2 (human) (UniProt P30874); test: FACS, transfected HEK-293 cells

Binder | Binding affinity relative to Compound 1 (% of Compound 1) [1] | Binding affinity relative to Compound 1 (% of Compound 1) [2] | Binding affinity relative to Compound 1 (% of Compound 1) [3] | Binding affinity relative to Compound 1 (% of Compound 1) [4] | Binding affinity relative to Compound 1 (% of Compound 1) [5] | Relative binding affinity [6] | Relative binding affinity [7] | Relative binding affinity [8] | Relative binding affinity [9] | Adjusted binding affinity [10] | Adjusted binding affinity [11] | Adjusted binding affinity [12] | Adjusted binding affinity [13] | Adjusted binding affinity [14] | Relative binding affinity [15]
XCFWXXTFX (FITC-GABA-DPhe-Cys*-Phe-Trp-DTrp-HomoLys-Thr-Phe-GlyS2*-NH2 (* = S-S bond; HomoLys = homolysine; GlyS2 = N-thioethyl glycine; C-terminal amide)) [Compound 16] | 38 | 71 | 25 | 0 | 20 | 12% | 7% |  | 4.5% | 0.21 | 1 | 0.58 | 0 | 0.38 | 2.5%
{FITC′-GABA}-[dF]RCF[dW]KTF[N(2-mercaptoethyl)Gly]-NH2 (disulfide 3-9) [Compound 2] | 77 | 24 | 18 | 167 | 18 | 4% | 5% | 5% | 4% | 1 | 0.8 | 1 | 1 | 0.8 | 5%
XXFWXKTFX (FITC-GABA-DPhe-HCys*-Phe-Trp-DTrp-Lys-Thr-Phe-GlyS2*-NH2 (* = S-S bond; HCys = homocysteine; GlyS2 = N-thioethyl glycine; C-terminal amide)) [Compound 11] |  |  | 144 |  | 129 |  | 41% |  | 29% |  |  | 1 |  | 0.71 | 
XCFWXXTFX (FITC-GABA-DPhe-Cys*-Phe-Trp-DTrp-LysAc-Thr-Phe-GlyS2*-NH2 (* = S-S bond; LysAc = acetyllysine; GlyS2 = N-thioethyl glycine; C-terminal amide)) [Compound 14] |  |  | 7 |  | 13 |  | 2% |  | 3% |  |  | 0.67 |  | 1 | 
XCFWXKTFX (FITC-GABA-DPhe-Cys*-Phe-Trp-DTrp-Lys-Thr-Phe-GlyS2*-NH2 (* = S-S bond; GlyS2 = N-thioethyl glycine; FITC-GABA on the N-terminal amine; C-terminal amide)) [Compound 1] | 100 | 100 | 100 | 100 | 100 | 17% | 28.5% | 3% | 22.5% | 0.23 | 0.6 | 1 | 0.11 | 0.79 | 6.5%
{FITC′-GABA}-[dF]RCF[dW][Orn]TF[N(2-mercaptoethyl)Gly]-NH2 (disulfide 3-9) [Compound 5] | 15 | 18 | 0 | 0 | 4 | 3% |  |  | 1% | 0.33 | 1 | 0 | 0 | 0.33 | 1%

Next, values leading:

Binding affinity relative to Compound 1 (% of Compound 1) [1] | Binding affinity relative to Compound 1 (% of Compound 1) [2] | Binding affinity relative to Compound 1 (% of Compound 1) [3] | Binding affinity relative to Compound 1 (% of Compound 1) [4] | Binding affinity relative to Compound 1 (% of Compound 1) [5] | Relative binding affinity [6] | Relative binding affinity [7] | Relative binding affinity [8] | Relative binding affinity [9] | Adjusted binding affinity [10] | Adjusted binding affinity [11] | Adjusted binding affinity [12] | Adjusted binding affinity [13] | Adjusted binding affinity [14] | Relative binding affinity [15] | Binder
0 | 35 | 32 | 33 | 18 | 6% | 9% | 1% | 4% | 0 | 0.67 | 1 | 0.11 | 0.44 |  | {FITC′-GABA}-[dF]CFW[dW][Aib]TF[N(2-mercaptoethyl)Gly]-NH2 (disulfide 2-9) [Compound 13]
69 | 68 | 96 | 78 | 140 | 11.5% | 27.5% | 2.6% | 31.5% | 0.14 | 0.37 | 0.87 | 0.08 | 1 | 4.5% | {FITC′-GABA}-[dF]CRFF[dW]KTF[N(2-mercaptoethyl)Gly]-NH2 (disulfide 2-10) [Compound 8]
66 | 92 | 33 | 120 | 59 | 15.7% | 9.3% | 3.6% | 13.3% | 0.27 | 1 | 0.59 | 0.23 | 0.85 | 4.3% | XCFWXXTFX (FITC-GABA-DPhe-Cys*-Phe-Trp-DTrp-Orn-Thr-Phe-GlyS2*-NH2 (* = S-S bond; GlyS2 = N-thioethyl glycine; Orn = ornithine; C-terminal amide)) [Compound 3]
23 | 132 | 2 | 0 | 7 | 22.5% | 0.5% |  | 1.5% | 0.07 | 1 | 0.02 | 0 | 0.07 | 1.5% | {FITC′-GABA}-[dF]RCY[dW]KTF[N(2-mercaptoethyl)Gly]-NH2 (disulfide 3-9) [Compound 6]
15 | 12 | 4 | 0 | 7 | 2% | 1% |  | 1.5% | 0.5 | 1 | 0.5 | 0 | 0.75 | 1% | {FITC′-GABA}-[dF]CY[dW][Orn]TF[N(2-mercaptoethyl)Gly]-NH2 (disulfide 2-8) [Compound 7]
